The results in this text go back to the supplement of paper PMC7877785.

± gives the uncertainty stated by the source.

This data set can be described thus: self-splicing fitness, log relative to wild type (ln ratio); higher = more splicing; Tetrahymena group I intron in knt gene, E. coli kanamycin selection, DiMSum; sequences stand for … in CUCUCU…GGAGGGAAAAGUUAUCAGGCAUGCACCUGGUAGCUAGUCUUUAAACCAAUAGAUUGCAUCGGUUUAAAAGGCAAGACCGUCAAAUUGCGGGAAAGGGGUCAACAGCCGUUCAGUACCAAGUCUCAGGGGAAACUUUGAGAUGGCCUUGCAAAGGGUAUGGUAAUAAGCUGACGGACAUGGUCCUAACCACGCAGCCAAGUCCUAAGUCAACAGAUCUUCUGUUGAUAUGGAUGCAGUUCACAGACUAAAUGUCGGUCGGGGAAGAUGUAUUCUUCUCAUAAGAUAUAGUCGGACCUCUCCUUAAUGGGAGCUAGCGGAUGAAGUGAUGCAACACUGGAGCCGCUGGGAACUAAUUUGUAUGCGAAAGUAUAUUGAUUAGUUUUGGAGUACUCGUGGUCG
In short, it runs like this: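 DiMSum derived fitness as the error-weighted combination of fold changes across replicates, kanamycin versus no kanamycin, normalised to wild type. E. coli BL21(DE3) held the library, which randomised all eight P1ex-region intron nucleotides within the knt kanamycin-resistance gene on pET-22b(+). Six replicate transformations grew overnight at 37°C or 30°C on LB agar with or without 25 μg/mL kanamycin, also containing 100 μg/mL carbenicillin, 50 μM IPTG and 0.2% rhamnose, and pooled colonies were amplicon-sequenced on an Illumina HiSeq 2500.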

Turning to GACGAGCAAUAUUACGUAAG, the “self-splicing fitness (ln)” value (30 °C) was -3.67 ± 0.41 and the “self-splicing fitness (ln)” value (37 °C) was -0.245 ± 0.22.

UCUUAGCAAUAUUACGUCGA: the “self-splicing fitness (ln)” value (30 °C) was -0.705 ± 0.13 and the “self-splicing fitness (ln)” value (37 °C) was -0.434 ± 0.15.

AGCUAGCAAUAUUACGUGAU: the “self-splicing fitness (ln)” value is, setting by setting: (30 °C) -3.09 ± 0.15; (37 °C) -1.79 ± 0.15.

For AUGAAGCAAUAUUACGUAGU, the “self-splicing fitness (ln)” value runs as follows: (30 °C) -1.91 ± 0.062; (37 °C) -0.665 ± 0.092.

For CCGCAGCAAUAUUACGCCAU, the “self-splicing fitness (ln)” value is -3.66 ± 0.15 (30 °C) and -3.07 ± 0.19 (37 °C).

As to ACCCAGCAAUAUUACGGAAU, the “self-splicing fitness (ln)” value was -0.884 ± 0.054 (30 °C) and -0.0542 ± 0.07 (37 °C).

CUGCAGCAAUAUUACGUGAG: the “self-splicing fitness (ln)” value was -0.703 ± 0.067 (30 °C) and 0.216 ± 0.093 (37 °C).

For the sequence UUGUAGCAAUAUUACGUUCA, the “self-splicing fitness (ln)” value (30 °C) was -1.07 ± 0.11 and the “self-splicing fitness (ln)” value (37 °C) was -0.717 ± 0.13.

As to CACGAGCAAUAUUACGGCAG, the “self-splicing fitness (ln)” value by setting is: (30 °C) -1.03 ± 0.11; (37 °C) -0.837 ± 0.14.

For CGCCAGCAAUAUUACGCCGG, the “self-splicing fitness (ln)” value by setting is: (30 °C) -3.13 ± 0.2; (37 °C) -3.21 ± 0.35.

UGACAGCAAUAUUACGUAAU: the “self-splicing fitness (ln)” value is -2.19 ± 0.099 (30 °C) and -0.915 ± 0.15 (37 °C).

For UAUCAGCAAUAUUACGUUUU, the “self-splicing fitness (ln)” value was -2.74 ± 0.084 (30 °C) and -1.4 ± 0.085 (37 °C).

With GGGCAGCAAUAUUACGGGAG, the “self-splicing fitness (ln)” value is, setting by setting: (30 °C) -3.27 ± 0.22; (37 °C) -2.21 ± 0.2.

For CGCUAGCAAUAUUACGAGAC, the “self-splicing fitness (ln)” value is, setting by setting: (30 °C) -3.36 ± 0.12; (37 °C) -2.45 ± 0.13.

Regarding UCUAAGCAAUAUUACGUACG, the “self-splicing fitness (ln)” value was -0.481 ± 0.11 (30 °C) and 0.49 ± 0.13 (37 °C).

For GGCUAGCAAUAUUACGCAUA, the “self-splicing fitness (ln)” value reads like this: (30 °C) 0.253 ± 0.13; (37 °C) 0.0704 ± 0.15.

Consider AUUUAGCAAUAUUACGACCA, for which the “self-splicing fitness (ln)” value reads like this: (30 °C) -0.901 ± 0.19; (37 °C) -0.373 ± 0.23.

On to GUCCAGCAAUAUUACGGGAC, for which the “self-splicing fitness (ln)” value is -3.53 ± 0.2 (30 °C) and -2.94 ± 0.31 (37 °C).

On to AGGUAGCAAUAUUACGGCAA, for which the “self-splicing fitness (ln)” value (30 °C) is -0.557 ± 0.017 and the “self-splicing fitness (ln)” value (37 °C) is -0.339 ± 0.034.

For ACAUAGCAAUAUUACGAAUG, the “self-splicing fitness (ln)” value was -1.65 ± 0.1 (30 °C) and -1.22 ± 0.13 (37 °C).

As to UCUGAGCAAUAUUACGCCCG, the “self-splicing fitness (ln)” value reads like this: (30 °C) -2.56 ± 0.28; (37 °C) -2.38 ± 0.49.

On to CCUCAGCAAUAUUACGGAUA, for which the “self-splicing fitness (ln)” value (30 °C) was -1.87 ± 0.15 and the “self-splicing fitness (ln)” value (37 °C) is -2.41 ± 0.24.

Consider UGGCAGCAAUAUUACGGUUU, for which the “self-splicing fitness (ln)” value is, setting by setting: (30 °C) -0.212 ± 0.061; (37 °C) -0.422 ± 0.078.

Regarding UACCAGCAAUAUUACGCAUC, the “self-splicing fitness (ln)” value (30 °C) is -1.93 ± 0.095 and the “self-splicing fitness (ln)” value (37 °C) was -1.13 ± 0.095.

CUCUAGCAAUAUUACGUAAA: the “self-splicing fitness (ln)” value by setting is: (30 °C) -3.71 ± 0.35; (37 °C) -0.971 ± 0.17.

UGAAAGCAAUAUUACGGUAU: the “self-splicing fitness (ln)” value reads like this: (30 °C) -2.53 ± 0.21; (37 °C) -0.827 ± 0.16.

Take ACCAAGCAAUAUUACGUUGG: the “self-splicing fitness (ln)” value runs as follows: (30 °C) -3.54 ± 0.12; (37 °C) -2.22 ± 0.14.

As to CUCAAGCAAUAUUACGUGAU, the “self-splicing fitness (ln)” value is, setting by setting: (30 °C) -1.25 ± 0.053; (37 °C) -0.372 ± 0.067.

Turning to GCCAAGCAAUAUUACGAGAG, the “self-splicing fitness (ln)” value (30 °C) is -2.88 ± 0.34 and the “self-splicing fitness (ln)” value (37 °C) was -1.53 ± 0.22.

Turning to GUGAAGCAAUAUUACGGGAG, the “self-splicing fitness (ln)” value by setting is: (30 °C) -2.09 ± 0.1; (37 °C) -0.567 ± 0.094.

For AACCAGCAAUAUUACGACGC, the “self-splicing fitness (ln)” value (30 °C) was -0.537 ± 0.082 and the “self-splicing fitness (ln)” value (37 °C) was -0.0547 ± 0.098.

Take CUAGAGCAAUAUUACGUCAA: the “self-splicing fitness (ln)” value reads like this: (30 °C) -3.76 ± 0.24; (37 °C) -2.23 ± 0.21.

Turning to CGUUAGCAAUAUUACGUGUC, the “self-splicing fitness (ln)” value is -4.28 ± 0.37 (30 °C) and -2.18 ± 0.18 (37 °C).

For the sequence CUCGAGCAAUAUUACGUCGA, the “self-splicing fitness (ln)” value (30 °C) was -3.29 ± 0.28 and the “self-splicing fitness (ln)” value (37 °C) was -1.67 ± 0.24.

As to AUGAAGCAAUAUUACGUGAU, the “self-splicing fitness (ln)” value (30 °C) was -1.24 ± 0.073 and the “self-splicing fitness (ln)” value (37 °C) is -0.839 ± 0.085.

For the sequence CGUUAGCAAUAUUACGCUUA, the “self-splicing fitness (ln)” value was -3.67 ± 0.28 (30 °C) and -1.86 ± 0.25 (37 °C).

For the sequence UGGUAGCAAUAUUACGACUU, the “self-splicing fitness (ln)” value runs as follows: (30 °C) -0.197 ± 0.16; (37 °C) 0.212 ± 0.16.

Regarding CAAGAGCAAUAUUACGCAUC, the “self-splicing fitness (ln)” value was -3.5 ± 0.29 (30 °C) and -0.397 ± 0.39 (37 °C).

With AGUAAGCAAUAUUACGGAAG, the “self-splicing fitness (ln)” value is, setting by setting: (30 °C) -2.55 ± 0.18; (37 °C) -2.2 ± 0.21.

On to GUUUAGCAAUAUUACGGCGA, for which the “self-splicing fitness (ln)” value by setting is: (30 °C) -0.198 ± 0.23; (37 °C) -0.0729 ± 0.19.

Turning to AAGGAGCAAUAUUACGUUCC, the “self-splicing fitness (ln)” value was -3.48 ± 0.32 (30 °C) and -2.98 ± 0.35 (37 °C).

With UUUUAGCAAUAUUACGGCGU, the “self-splicing fitness (ln)” value (30 °C) was -1.89 ± 0.21 and the “self-splicing fitness (ln)” value (37 °C) was -0.915 ± 0.45.

Turning to AUAAAGCAAUAUUACGAGAA, the “self-splicing fitness (ln)” value (30 °C) was -2.7 ± 0.19 and the “self-splicing fitness (ln)” value (37 °C) is -1.85 ± 0.23.

For CCUUAGCAAUAUUACGAAGA, the “self-splicing fitness (ln)” value is -2.58 ± 0.27 (30 °C) and -3.3 ± 0.26 (37 °C).

On to UUAAAGCAAUAUUACGGAGU, for which the “self-splicing fitness (ln)” value is -3.35 ± 0.21 (30 °C) and -1.68 ± 0.19 (37 °C).

With GGGAAGCAAUAUUACGGGGC, the “self-splicing fitness (ln)” value (30 °C) is -2.85 ± 0.34.

Consider UCCCAGCAAUAUUACGUGAG, for which the “self-splicing fitness (ln)” value was -1.52 ± 0.08 (30 °C) and -0.669 ± 0.083 (37 °C).

CAGUAGCAAUAUUACGCGUU: the “self-splicing fitness (ln)” value reads like this: (30 °C) -2.21 ± 0.23; (37 °C) -1.64 ± 0.23.

Take GCUGAGCAAUAUUACGUAGU: the “self-splicing fitness (ln)” value is, setting by setting: (30 °C) -2.86 ± 0.16; (37 °C) -1.71 ± 0.15.

As for CGCCAGCAAUAUUACGUCCG, the “self-splicing fitness (ln)” value by setting is: (30 °C) -0.462 ± 0.1; (37 °C) -0.546 ± 0.12.

With AGCAAGCAAUAUUACGUUGU, the “self-splicing fitness (ln)” value was -3.33 ± 0.12 (30 °C) and -2.87 ± 0.14 (37 °C).

For the sequence CACGAGCAAUAUUACGGGAG, the “self-splicing fitness (ln)” value is, setting by setting: (30 °C) -3.53 ± 0.21; (37 °C) -2.37 ± 0.18.

UUAGAGCAAUAUUACGCCUA: the “self-splicing fitness (ln)” value (30 °C) was -0.268 ± 0.13 and the “self-splicing fitness (ln)” value (37 °C) was -0.0554 ± 0.19.

As to UGUAAGCAAUAUUACGCCAC, the “self-splicing fitness (ln)” value is -3.43 ± 0.33 (30 °C) and -2.65 ± 0.41 (37 °C).

On to GGCCAGCAAUAUUACGGGAA, for which the “self-splicing fitness (ln)” value reads like this: (30 °C) -1.98 ± 0.11; (37 °C) -0.198 ± 0.11.

Turning to CGCCAGCAAUAUUACGCGUU, the “self-splicing fitness (ln)” value is, setting by setting: (30 °C) -2.03 ± 0.12; (37 °C) -2.31 ± 0.19.

On to UCACAGCAAUAUUACGUCAG, for which the “self-splicing fitness (ln)” value is -1.59 ± 0.077 (30 °C) and -0.829 ± 0.1 (37 °C).

For CACCAGCAAUAUUACGCUCC, the “self-splicing fitness (ln)” value reads like this: (30 °C) -3.91 ± 0.21; (37 °C) -2.11 ± 0.33.

Consider GGCAAGCAAUAUUACGAACC, for which the “self-splicing fitness (ln)” value was -2.41 ± 0.36 (30 °C) and -0.982 ± 0.24 (37 °C).

For AAGGAGCAAUAUUACGCGUG, the “self-splicing fitness (ln)” value reads like this: (30 °C) -4.9 ± 0.45; (37 °C) -2.1 ± 0.18.
